Target: Flag-DHX9 recombinant protein (UniProt Q08211 1-1270)
Assay: pull-down

Chain of Flag-DHX9 recombinant protein (Q08211 whole entry): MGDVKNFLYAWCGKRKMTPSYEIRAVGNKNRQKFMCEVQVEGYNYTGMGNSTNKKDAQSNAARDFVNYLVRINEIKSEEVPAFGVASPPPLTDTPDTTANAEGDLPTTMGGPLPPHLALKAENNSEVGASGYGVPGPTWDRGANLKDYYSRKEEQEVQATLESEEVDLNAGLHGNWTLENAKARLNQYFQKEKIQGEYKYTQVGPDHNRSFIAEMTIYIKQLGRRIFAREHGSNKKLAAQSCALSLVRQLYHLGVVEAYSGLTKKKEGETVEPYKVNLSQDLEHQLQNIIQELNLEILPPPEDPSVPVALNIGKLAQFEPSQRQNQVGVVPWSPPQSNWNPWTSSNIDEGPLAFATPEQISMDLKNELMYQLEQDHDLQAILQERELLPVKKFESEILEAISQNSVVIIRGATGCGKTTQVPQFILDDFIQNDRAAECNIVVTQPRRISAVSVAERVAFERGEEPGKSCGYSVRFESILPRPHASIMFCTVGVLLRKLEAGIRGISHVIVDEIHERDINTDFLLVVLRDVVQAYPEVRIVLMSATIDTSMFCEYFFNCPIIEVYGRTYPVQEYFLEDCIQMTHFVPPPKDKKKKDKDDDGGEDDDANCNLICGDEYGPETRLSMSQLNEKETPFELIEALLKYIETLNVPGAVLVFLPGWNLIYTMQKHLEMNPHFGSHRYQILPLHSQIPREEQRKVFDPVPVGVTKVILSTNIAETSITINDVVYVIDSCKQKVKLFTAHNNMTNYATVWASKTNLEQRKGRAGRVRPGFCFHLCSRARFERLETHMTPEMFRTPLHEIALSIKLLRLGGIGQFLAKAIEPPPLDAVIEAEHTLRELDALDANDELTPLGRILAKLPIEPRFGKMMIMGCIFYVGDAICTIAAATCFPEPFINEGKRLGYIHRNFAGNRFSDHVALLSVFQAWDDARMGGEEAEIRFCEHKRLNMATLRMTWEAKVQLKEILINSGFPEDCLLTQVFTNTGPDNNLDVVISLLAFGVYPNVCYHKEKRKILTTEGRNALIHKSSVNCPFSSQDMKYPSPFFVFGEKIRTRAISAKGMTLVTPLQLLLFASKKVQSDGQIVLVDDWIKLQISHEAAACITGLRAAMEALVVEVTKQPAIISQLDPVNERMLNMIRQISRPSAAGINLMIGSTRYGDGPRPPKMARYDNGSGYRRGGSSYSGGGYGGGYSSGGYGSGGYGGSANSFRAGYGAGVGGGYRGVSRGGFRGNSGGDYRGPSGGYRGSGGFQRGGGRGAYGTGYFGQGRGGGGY

B1: GST-TDRD3 (natural protein)
chain: MAQVAGAALSQAGWYLSDEGIEACTSSPDKVNVNDIILIALNTDLRTIGKKFLPSDINSGKVEKLEGPCVLQIQKIRNVAAPKDNEESQAAPRMLRLQMTDGHISCTAVEFSYMSKISLNTPPGTKVKLSGIVDIKNGFLLLNDSNTTVLGGEVEHLIEKWELQRSLSKHNRSNIGTEGGPPPFVPFGQKCVSHVQVDSRELDRRKTLQVTMPVKPTNDNDEFEKQRTAAIAEVAKSKETKTFGGGGGGARSNLNMNAAGNRNREVLQKEKSTKSEGKHEGVYRELVDEKALKHITEMGFSKEASRQALMDNGNNLEAALNVLLTSNKQKPVMGPPLRGRGKGRGRIRSEDEEDLGNARPSAPSTLFDFLESKMGTLNVEEPKSQPQQLHQGQYRSSNTEQNGVKDNNHLRHPPRNDTRQPRNEKPPRFQRDSQNSKSVLEGSGLPRNRGSERPSTSSVSEVWAEDRIKCDRPYSRYDRTKDTSYPLGSQHSDGAFKKRDNSMQSRSGKGPSFAEAKENPLPQGSVDYNNQKRGKRESQTSIPDYFYDRKSQTINNEAFSGIKIEKHFNVNTDYQNPVRSNSFIGVPNGEVEMPLKGRRIGPIKPAGPVTAVPCDDKIFYNSGPKRRSGPIKPEKILESSIPMEYAKMWKPGDECFALYWEDNKFYRAEVEALHSSGMTAVVKFIDYGNYEEVLLSNIKPIQTEAWEEEGTYDQTLEFRRGGDGQPRRSTRPTQQFYQPPRARN
B1: binds.

Reference: article PMC8421139 (Nucleic Acids Research, 2021)
